Test [1] addresses CXCR3, stably expressed on HEK293 cells (human) (UniProt P49682).
Test [2] has the same target. Description: radioligand binding.

A word on the IC50: it is the point on the concentration scale where inhibition reaches its midpoint. Lower therefore signals inhibition by little substance.

UniProt P49682, sequence (P49682 whole entry): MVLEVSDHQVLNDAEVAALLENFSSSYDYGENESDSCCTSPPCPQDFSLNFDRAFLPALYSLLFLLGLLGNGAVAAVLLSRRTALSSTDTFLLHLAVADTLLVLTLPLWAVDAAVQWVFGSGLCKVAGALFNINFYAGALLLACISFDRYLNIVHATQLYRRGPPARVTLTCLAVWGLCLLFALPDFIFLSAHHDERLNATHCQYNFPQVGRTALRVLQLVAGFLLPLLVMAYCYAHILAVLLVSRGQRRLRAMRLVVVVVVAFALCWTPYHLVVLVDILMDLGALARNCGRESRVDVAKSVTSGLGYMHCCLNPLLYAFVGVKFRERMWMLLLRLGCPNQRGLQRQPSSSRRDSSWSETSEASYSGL

As for “IFN-γ–induced human monokine (HuMig), recombinant, unlabeled (from UniProt Q07325 23-125) (ligand)”, in test [1], the EC50 of intracellular calcium mobilization in 300-19 CXCR3 transfectants was determined as 50 nM and the intracellular calcium mobilized in 300-19 CXCR3 transfectants (maximum) was 1000 nM. The IC50 in test [2] is 300 nM.

“I-TAC (interferon-inducible T cell alpha chemoattractant), chemically synthesized predicted mature polypeptide, unlabeled (from UniProt O14625 22-94) (ligand)”: in test [1], the EC50 of intracellular calcium mobilization in 300-19 CXCR3 transfectants is 1 nM. Besides, in test [2], the half-maximal inhibitory concentration (IC50) was found to be 1 nM; the KD, high affinity site (Scatchard) amounted to 0.3 nM; the KD, low affinity site (Scatchard) turned out to be 36 nM.

In the case of “125I-iodinated I-TAC (radiolabeled synthetic mature I-TAC) (from UniProt O14625 22-94) (ligand)”, the radiolabeled I-TAC bound (cpm) in test [2] is 5980 cpm.

As to “IFN-γ–inducible 10-kD protein (IP-10), recombinant, unlabeled (from UniProt P02778 22-98) (ligand)”, in test [1], the EC50 of intracellular calcium mobilization in 300-19 CXCR3 transfectants was 10 nM and the intracellular calcium mobilized in 300-19 CXCR3 transfectants (maximum) was determined as 1000 nM. In addition, the IC50 in test [2] came out at 70 nM.
